Reference: publication PMC11587196 (Cell reports, 2024)

B1: 3G5 monoclonal antibody (hIgG1 with Fc-silent LALA mutations) (antibody, V domains shown)
VH: EVQLVESGGVLVKPGGSLKLSCAASGFTFSDYAMSWVRQTPEKRLEWVATITDGGSYAYYTDDVKGRFTVSRDNARNNLFLQMSHLRSEDTGIYYCSRDRWPYYFDFWGRGTTLTVSS
VL: DIQMTQSPTSLSVSVGETVTITCRISENIYSNLAWYQQKEGKSPQLLVYAATKLADGVPSRFSGSGSGTQYSLKINSLQSEDFGNYYCQHFWTTPRTFGGGTKVEIK
B2: 3G5 Fab (Fab, V domains shown)
VH: B1 VH
VL: B1 VL

What was measured:
Experiment in all cases: SPR
[1] = target: IL-1 receptor accessory protein (IL-1RAcP) ectodomain (Homo sapiens (Human)., UniProt Q9NPH3, glycosylated (seven putative glycosylation sites))
IL-1RAcP domain 1/2 = IL-1RAcP domain 1/2 (Homo sapiens, UniProt Q9NPH3)
IL-1RAcP domain 3 = IL-1RAcP domain 3 (Homo sapiens, UniProt Q9NPH3)
Fc-fused IL-1RAcP Y249A = Fc-fused IL-1RAcP Y249A (Homo sapiens, UniProt Q9NPH3, Y249A)
Fc-fused IL-1RAcP R286A = Fc-fused IL-1RAcP R286A (Homo sapiens, UniProt Q9NPH3, R286A)
Fc-fused IL-1RAcP V224A = Fc-fused IL-1RAcP V224A (Homo sapiens, UniProt Q9NPH3, V224A)
Fc-fused IL-1RAcP H226A = Fc-fused IL-1RAcP H226A (Homo sapiens, UniProt Q9NPH3, H226A)
Chain of Fc-fused IL-1RAcP H226A (Q9NPH3 21-367 H246A): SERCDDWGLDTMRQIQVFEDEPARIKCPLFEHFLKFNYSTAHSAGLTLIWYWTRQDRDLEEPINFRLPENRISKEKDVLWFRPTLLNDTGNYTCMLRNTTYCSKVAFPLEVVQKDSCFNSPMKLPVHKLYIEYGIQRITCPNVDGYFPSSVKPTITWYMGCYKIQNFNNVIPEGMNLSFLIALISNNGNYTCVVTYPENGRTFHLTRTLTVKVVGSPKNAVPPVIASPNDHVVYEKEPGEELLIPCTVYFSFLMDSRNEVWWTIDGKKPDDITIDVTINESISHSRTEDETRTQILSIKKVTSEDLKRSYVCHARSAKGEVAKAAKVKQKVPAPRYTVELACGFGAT

Chain of IL-1 receptor accessory protein (IL-1RAcP) ectodomain (Q9NPH3 21-367): as the sequence (Q9NPH3 21-367 H246A) above, with A226H counted along it
Chain of Fc-fused IL-1RAcP R286A (Q9NPH3 21-367 R306A): as the sequence (Q9NPH3 21-367 H246A) above, with A226H, R286A counted along it
Chain of Fc-fused IL-1RAcP V224A (Q9NPH3 21-367 V244A): as the sequence (Q9NPH3 21-367 H246A) above, with V224A, A226H counted along it
Chain of Fc-fused IL-1RAcP Y249A (Q9NPH3 21-367 Y269A): as the sequence (Q9NPH3 21-367 H246A) above, with A226H, Y249A counted along it

Binder | Kd [1] [nM] | koff [1] [s⁻¹] | binding result (IL-1RAcP domain 1/2) | Kd (IL-1RAcP domain 3) [nM] | ΔΔG (change in binding free energy against wild-type IL-1RacP-Fc) (Fc-fused IL-1RAcP Y249A) [kcal/mol] | ΔΔG (change in binding free energy against wild-type IL-1RacP-Fc) (Fc-fused IL-1RAcP R286A) [kcal/mol] | ΔΔG (change in binding free energy against wild-type IL-1RacP-Fc) (Fc-fused IL-1RAcP V224A) [kcal/mol] | ΔΔG (change in binding free energy against wild-type IL-1RacP-Fc) (Fc-fused IL-1RAcP H226A) [kcal/mol]
B1 | 0.141 | 0.000225 | no binding (tested: 1.25nM to 20nM) | 0.118 |  |  |  | 
B2 |  |  |  |  | 1.85 | 0.3 | 1.3 | 2.4
